The results in this text go back to PMC12802937.

Where a chain is given by its changes, count along the chain named. Numbers in names are those of the source.

What is called Kd is the concentration at which binding is half-saturated. A word on the koff: it is the first-order rate constant of dissociation. In general, kon refers to the rate constant with which the complex forms.

Assay [1] deals with RNF-MD S5i (E766K in RNF20 and K57E/R804E in RNF40) (human) (UniProt Q5VTR2). Briefly: SPR; RNF-MD immobilised on a CM5 chip, intein-WAC flown over; Biacore 8K, 25°C, 20 mM HEPES (pH 7.5), 200 mM sodium chloride, 0.02% Tween 20. In general terms: SPR reads the build-up and loss of mass on a sensor chip optically.
Assay [2] deals with RNF-MD S4i (D780K in RNF20) (human) (UniProt Q5VTR2). Described as above.

B1: intein-CBD-tagged WAC-CT (WAC residues 570–647) (domain or fragment)
chain: HVQGWPADHAEKQASRLREEAHNMGTIHMSEICTELKNLRSLVRVCEIQATLREQRILFLRQQIKELEKLKNQNSFMV
In assay [1], B1 displayed an equilibrium dissociation constant (Kd) of 464 nM, a koff of 0.0142 s⁻¹ and an on-rate constant (kon) of 30500 M⁻¹ s⁻¹.

B2: intein-WAC S4 (R630E) (domain or fragment)
chain: B1 chain with R61E
In assay [2], B2 returned a dissociation constant Kd of 249 nM, a koff of 0.0435 s⁻¹ and an on-rate constant (kon) of 17500 M⁻¹ s⁻¹.
